Values of other authors, collected in article PMC3865722.
pKd: −log10 of the molar value. Read-outs that look alike come from different tables or passages of the source.

Assays:
[1] = biological target: SRSF1 (Homo sapiens) (UniProt Q07955)
[2] = biological target: SRSF1 (Homo sapiens) (UniProt Q07955); remark: listed apart in the source

Sequence of SRSF1 (Homo sapiens) (Q07955 2-248): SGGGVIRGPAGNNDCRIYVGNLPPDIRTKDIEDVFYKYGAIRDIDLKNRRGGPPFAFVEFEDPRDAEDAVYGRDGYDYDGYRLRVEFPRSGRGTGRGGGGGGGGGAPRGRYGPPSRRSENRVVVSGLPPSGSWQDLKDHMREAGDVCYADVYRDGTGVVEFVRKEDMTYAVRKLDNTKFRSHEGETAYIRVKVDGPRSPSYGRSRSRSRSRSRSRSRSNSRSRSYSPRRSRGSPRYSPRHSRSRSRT
Sequence of CLK1 (P49759 whole entry): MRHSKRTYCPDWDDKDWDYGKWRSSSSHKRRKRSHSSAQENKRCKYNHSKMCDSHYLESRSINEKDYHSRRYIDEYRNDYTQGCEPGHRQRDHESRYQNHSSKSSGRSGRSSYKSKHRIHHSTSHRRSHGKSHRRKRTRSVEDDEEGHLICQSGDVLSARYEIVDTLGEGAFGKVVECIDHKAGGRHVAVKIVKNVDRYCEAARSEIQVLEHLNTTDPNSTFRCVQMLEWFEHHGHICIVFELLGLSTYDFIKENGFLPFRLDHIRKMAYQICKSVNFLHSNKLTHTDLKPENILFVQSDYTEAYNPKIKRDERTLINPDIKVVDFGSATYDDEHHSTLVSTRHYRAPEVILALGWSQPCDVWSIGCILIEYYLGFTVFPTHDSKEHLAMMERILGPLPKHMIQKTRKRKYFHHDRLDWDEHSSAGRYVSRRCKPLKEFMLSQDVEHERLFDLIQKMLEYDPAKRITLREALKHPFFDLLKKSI

SRPK1 (from UniProt Q96SB4)
pKd [1]: > 7.00

CLK1 (from UniProt P49759)
pKd [2]: > 7.00
